“And” between values parts separate entries of the source, which are not always exact repeats. Equal entries are not always repeated.
Target: T1, BmdC (Thermoactinomyces vulgaris F-5595)
T1 construct: BmdC, FMN-dependent oxidase of the bacillamide pathway, Thermoactinomyces vulgaris F-5595 (WP_022737638.1); RREL domain, 45-residue loop, Ox domain (residues 142-325); Co-purifies with FMN; also called oxidase BmdC; dimeric BmdC; source: E. coli BL21(DE3), purified (IMAC, CBP column, TEV cleavage, gel filtration)
Experiment: ITC; 600 μM BmdB A2 injected into 60 μM dimeric BmdC, 25 °C, 50 mM Tris-HCl pH 7.5, 200 mM NaCl, 1 mM TCEP; fitted with a binding model using a stoichiometry of 1; triplicate
Conditions: both partners purified

Kd: ~75 nM and 44 to 118 nM
B1: BmdB_A2 (domain or fragment)
chain: YNATAEPIPAATLHQLFIDQAQRTPDQVAVVFEQEWLTYSELDQRSNQVARFLQSRGIGRGDRVGVLAKRQVETIINLMAVLKAGAAYVPIDPDHPYERQTYILENSSCKILLDSDLYETMEISSYADGDLTPVAEPEDTAYVIYTSGSTGRPKGVIITHQAASNTIQDINRKFEVNEEDRIIGISSMCFDLSVYDIFGTLSAGATLVMIRDPRDMRELVRTVERRGITIWNTVPAIMDLALDHVGSHFENISLRLVLLSGDWIPLPLPAKINRHFPVADVISLGGATEASIWSIYWPIEQVEANWKSIPYGKPLANQTYYVLNYDQKMCPVGVIGDLYIGGAGLAQGYLNDDQKTKDAFIMHPEFGPIYKTGDCGRMRPEGYIEFLGRQDYQVKIQGYRVELEEISHCLLTYPDVDQAVVIDQTDERGMKFLVGYVVAQQEIDEKALRKHLMEHLPEYMIPAHLVHLEQLPLTPNGKLDRKALPVPKKQRNAEKFV

Reference: PMC8795117, “Structures and function of a tailoring oxidase in complex with a nonribosomal peptide synthetase module” (Nature Communications, 2022)
